Assay results as given in patent US20250073311A1, “DOSAGE REGIME” (ZEALAND PHARMA A/S, priority 2021, published 2025).
Numbered stars: 1 amine (or outer) side, 2 acyl side, 3 side chain; on linkers, the order of the positions; unused ones are H or OH. Square brackets hold non-standard residues; d marks the D form. Side chains are listed from the residue outwards. * marks the point of attachment. C20 diacid = O=C(O)CCCCCCCCCCCCCCCCCCC(=O)*; C18 diacid = O=C(O)CCCCCCCCCCCCCCCCC(=O)*; γGlu = O=C(O)[C@H](CCC(=O)[*:2])N[*:1]; AEEA = NCCOCCOCC(=O)O; Aib = CC(C)(N)C(=O)O

T1: human GLP-2 receptor (hGLP2-R) (human, UniProt O95838)
T1 sequence: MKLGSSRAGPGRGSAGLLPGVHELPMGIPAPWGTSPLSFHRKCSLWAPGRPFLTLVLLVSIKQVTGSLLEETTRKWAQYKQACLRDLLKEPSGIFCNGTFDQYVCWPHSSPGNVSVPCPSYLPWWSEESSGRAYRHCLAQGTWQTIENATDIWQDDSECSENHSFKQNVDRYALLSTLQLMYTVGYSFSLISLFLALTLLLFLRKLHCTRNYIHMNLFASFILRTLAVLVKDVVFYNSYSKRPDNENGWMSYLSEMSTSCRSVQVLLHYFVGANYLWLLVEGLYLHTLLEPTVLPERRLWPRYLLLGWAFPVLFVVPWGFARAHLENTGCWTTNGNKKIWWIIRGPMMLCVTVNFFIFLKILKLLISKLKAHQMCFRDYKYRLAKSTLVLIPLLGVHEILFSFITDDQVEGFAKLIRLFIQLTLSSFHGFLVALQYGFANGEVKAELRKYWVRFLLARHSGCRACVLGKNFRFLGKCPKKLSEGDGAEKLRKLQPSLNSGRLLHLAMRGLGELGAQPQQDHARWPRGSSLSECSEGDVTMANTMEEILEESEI

B1: Compound 33 (peptide)
peptide: H-H[Aib]EGSFTSELATILDK([AEEA-γGlu-C18 diacid])QAARDFIAWLYQHKITD-OH
SMILES: CC[C@H](C)[C@H](NC(=O)[C@H](Cc1ccccc1)NC(=O)[C@H](CC(=O)O)NC(=O)[C@H](CCCNC(=N)N)NC(=O)[C@H](C)NC(=O)[C@H](C)NC(=O)[C@H](CCC(N)=O)NC(=O)[C@H](CCCCNC(=O)COCCOCCNC(=O)CC[C@H](NC(=O)CCCCCCCCCCCCCCCCC(=O)O)C(=O)O)NC(=O)[C@H](CC(=O)O)NC(=O)[C@H](CC(C)C)NC(=O)[C@@H](NC(=O)[C@@H](NC(=O)[C@H](C)NC(=O)[C@H](CC(C)C)NC(=O)[C@H](CCC(=O)O)NC(=O)[C@H](CO)NC(=O)[C@@H](NC(=O)[C@H](Cc1ccccc1)NC(=O)[C@H](CO)NC(=O)CNC(=O)[C@H](CCC(=O)O)NC(=O)C(C)(C)NC(=O)[C@@H](N)Cc1c[nH]cn1)[C@@H](C)O)[C@@H](C)O)[C@@H](C)CC)C(=O)N[C@@H](C)C(=O)N[C@@H](Cc1c[nH]c2ccccc12)C(=O)N[C@@H](CC(C)C)C(=O)N[C@@H](Cc1ccc(O)cc1)C(=O)N[C@@H](CCC(N)=O)C(=O)N[C@@H](Cc1c[nH]cn1)C(=O)N[C@@H](CCCCN)C(=O)N[C@H](C(=O)N[C@H](C(=O)N[C@@H](CC(=O)O)C(=O)O)[C@@H](C)O)[C@@H](C)CC
B2: Compound 34 (peptide)
peptide: H-H[Aib]EGSFTSELATILDK([AEEA-AEEA-γGlu-C20 diacid])QAARDFIAWLKQHKITD-OH
SMILES: CC[C@H](C)[C@H](NC(=O)[C@H](Cc1ccccc1)NC(=O)[C@H](CC(=O)O)NC(=O)[C@H](CCCNC(=N)N)NC(=O)[C@H](C)NC(=O)[C@H](C)NC(=O)[C@H](CCC(N)=O)NC(=O)[C@H](CCCCNC(=O)COCCOCCNC(=O)COCCOCCNC(=O)CC[C@H](NC(=O)CCCCCCCCCCCCCCCCCCC(=O)O)C(=O)O)NC(=O)[C@H](CC(=O)O)NC(=O)[C@H](CC(C)C)NC(=O)[C@@H](NC(=O)[C@@H](NC(=O)[C@H](C)NC(=O)[C@H](CC(C)C)NC(=O)[C@H](CCC(=O)O)NC(=O)[C@H](CO)NC(=O)[C@@H](NC(=O)[C@H](Cc1ccccc1)NC(=O)[C@H](CO)NC(=O)CNC(=O)[C@H](CCC(=O)O)NC(=O)C(C)(C)NC(=O)[C@@H](N)Cc1c[nH]cn1)[C@@H](C)O)[C@@H](C)O)[C@@H](C)CC)C(=O)N[C@@H](C)C(=O)N[C@@H](Cc1c[nH]c2ccccc12)C(=O)N[C@@H](CC(C)C)C(=O)N[C@@H](CCCCN)C(=O)N[C@@H](CCC(N)=O)C(=O)N[C@@H](Cc1c[nH]cn1)C(=O)N[C@@H](CCCCN)C(=O)N[C@H](C(=O)N[C@H](C(=O)N[C@@H](CC(=O)O)C(=O)O)[C@@H](C)O)[C@@H](C)CC

Molecular target: T1, human GLP-2 receptor (hGLP2-R)
Assay: cell-based or functional assay

Binder	EC50 GLP-2 (nM), cAMP AlphaScreen [nM]
B1	0.072
B2	0.13
H-H[Aib]EGSFTSELATILDK([AEEA-AEEA-AEEA-iso‑Lys-C20 diacid])QAARDFIAWLIQQKITD-OH [Compound 35]	0.3

Molecular target: human glucagon-like peptide 1 receptor (GLP-1R) (human, UniProt P43220)
Assay: cell-based or functional assay

Binder	EC50 GLP-1 (nM), cAMP AlphaScreen [nM]
B1	0.85
B2	0.28
H-H[Aib]EGSFTSELATILDK([AEEA-AEEA-AEEA-iso‑Lys-C20 diacid])QAARDFIAWLIQQKITD-OH [Compound 35]	0.099
